From patent publication US20240026037A1 (Memorial Sloan Kettering, published 2024) come the findings set out here.

For experiment [1], the target named is T1, Human GPA33 (recombinant protein, Novoprotein) (human, UniProt Q99795 22-235).
T1 construct: Bought recombinant protein immobilized on a CM5 chip; also called GPA33 antigen; tumor antigen GPA33
T1 sequence: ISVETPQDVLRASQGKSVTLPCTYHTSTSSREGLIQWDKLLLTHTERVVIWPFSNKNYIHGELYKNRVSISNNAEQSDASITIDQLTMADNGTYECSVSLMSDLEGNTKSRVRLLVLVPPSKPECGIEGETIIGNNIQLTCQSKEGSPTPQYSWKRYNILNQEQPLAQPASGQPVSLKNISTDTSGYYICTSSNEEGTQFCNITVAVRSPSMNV
The experiment can be described thus: SPR (Biacore), human GPA33 immobilized on CM5 chip, two-state fit. On the procedure: (§1) SPR analysis. Human GPA33 (Novoprotein, Summit, NJ) was immobilized on CM5 chips. Five concentrations of 2-fold serially diluted huA33 IgG1 or huA33-BsAbs (starting at 20 nM) were flowed over the chip using a Biacore™ T100 system (GE Healthcare, Chicago, IL). Binding kinetics of huA33 were measured at 25° C. and binding kinetics of huA33-BsAbs were measured at both 25° C. and 37° C. The sensorgrams were fitted with two state binding model for both to derive kinetic parameters.
(SPR reads the build-up and loss of mass on a sensor chip optically.)

For experiment [2], the target named is T1, Human GPA33 (recombinant protein, …). Nature of the experiment: SPR (Biacore), human GPA33 immobilized on CM5 chip, two-state fit, ka1. How it is done:
as §1

Experiment [3] has the same target. Nature of the experiment: SPR (Biacore), human GPA33 immobilized on CM5 chip, two-state fit, kd1. The gist of the method:
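The off-rate (kd1) came from surface plasmon resonance, with sensorgrams fitted to a two-state binding model to derive the kinetic parameters. Recombinant human GPA33 from Novoprotein was immobilised on a CM5 chip in a Biacore T100. Antibodies were flowed over at five concentrations, made as 2-fold serial dilutions starting at 20 nM. The parent IgG1 was run at 25° C, and the bispecific formats at both 25° C and 37° C.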

The target is the same in experiment [4]. The experiment can be described thus: SPR (Biacore), human GPA33 immobilised on the chip; KD relative to that of BC015. The gist of the method:
(§2)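 On a Biacore system, antibodies at five concentrations (2-fold serial dilutions, highest 20 nM) were passed over recombinant human GPA33 (Novoprotein) immobilised on a CM5 sensor chip. Rate constants and the dissociation constant (KD) came from kinetic fitting of the surface plasmon resonance sensorgrams. Each KD is expressed relative to the KD of a reference molecule, as a ratio.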

The target in experiment [5] is T2, Human GPA33 on GPA33+ colorectal cancer cell lines (Colo 205, LS 174T, SW 1222) (human, UniProt Q99795 22-319).
T2 construct: Endogenous GPA33 on human colorectal cancer cell lines; also called surface human GPA33; GPA33+ tumor cell lines
T2 sequence: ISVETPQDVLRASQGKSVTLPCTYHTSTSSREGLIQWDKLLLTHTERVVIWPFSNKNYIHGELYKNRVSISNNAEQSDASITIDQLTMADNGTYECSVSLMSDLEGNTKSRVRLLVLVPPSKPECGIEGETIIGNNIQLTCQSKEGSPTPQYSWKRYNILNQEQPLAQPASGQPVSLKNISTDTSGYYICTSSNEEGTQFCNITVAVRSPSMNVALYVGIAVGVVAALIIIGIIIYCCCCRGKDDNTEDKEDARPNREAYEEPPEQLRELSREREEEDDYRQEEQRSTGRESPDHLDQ
Nature of the experiment: cell binding to LS174T Luc cells; IgG format.

For experiment [6], the target named is T2, Human GPA33 on GPA33+ colorectal cancer …. Nature of the experiment: cell binding to SW1222 Luc cells; IgG format.
In experiment [7] the target is T1, Human GPA33 (recombinant protein, …). The experiment can be described thus: SPR (Biacore), binding to GPA33 protein; IgG format. How it is done: as §1
Experiment [8] concerns the target T2, Human GPA33 on GPA33+ colorectal cancer …. Nature of the experiment: flow cytometry, LS 174T cells. Background: A flow cytometer gives signals particle by particle.
For experiment [9] the target is unchanged. The experiment can be described thus: flow cytometry, SW 1222 cells.
Experiment [10] shares this target. Nature of the experiment: flow cytometry, Colo 205 cells; Colo 205 cells.
For experiment [11] the target is unchanged. Nature of the experiment: FACS binding to LS174T cells (GPA33+).
The target is the same in experiment [12]. The experiment can be described thus: FACS binding to SW1222 cells (GPA33+).
For experiment [13] the target is unchanged. The experiment can be described thus: FACS binding to Colo205 cells (GPA33+).
Experiment [14] deals with T1, Human GPA33 (recombinant protein, …). The experiment can be described thus: SPR (Biacore), human GPA33 immobilised on the chip; KD relative to that of TC170. The gist of the method: as §2

B1: BC155 (bispecific antibody, human IgG1, kappa, N297A)
heavy: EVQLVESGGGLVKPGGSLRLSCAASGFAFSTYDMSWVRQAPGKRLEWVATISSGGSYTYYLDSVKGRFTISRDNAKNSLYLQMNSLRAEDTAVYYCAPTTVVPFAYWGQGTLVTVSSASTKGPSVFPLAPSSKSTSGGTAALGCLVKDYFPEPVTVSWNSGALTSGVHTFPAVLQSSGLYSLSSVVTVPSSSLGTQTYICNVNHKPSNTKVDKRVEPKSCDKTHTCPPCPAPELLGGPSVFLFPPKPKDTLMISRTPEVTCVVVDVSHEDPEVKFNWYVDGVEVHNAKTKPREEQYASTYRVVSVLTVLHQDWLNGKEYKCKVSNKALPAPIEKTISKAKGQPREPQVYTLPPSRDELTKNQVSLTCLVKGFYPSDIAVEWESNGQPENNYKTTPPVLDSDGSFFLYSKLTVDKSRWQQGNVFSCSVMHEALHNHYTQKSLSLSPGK
light: DIQMTQSQSSLSTSVGDRVTITCKASQNVRTVVAWYQQKPGKSPKTLIYLASNRHTGVPSRFSGSGSGTEFTLTISNVQPEDFADYFCLQHWSYPLTFGSGTKLEIKRTVAAPSVFIFPPSDEQLKSGTASVVCLLNNFYPREAKVQWKVDNALQSGNSQESVTEQDSKDSTYSLSSTLTLSKADYEKHKVYACEVTHQGLSSPVTKSFNRGECTSGGGGSGGGGSGGGGSHVQLVESGGGLVQPGGSLRLSCAASGFSLTDYGVHWVRQAPGKGLEWLGVIWSGGGTAYNTALISRFTISRDNSKNTLYLQMNSLRAEDTAVYYCARRGSYPYNYFDAWGCGTLVTVSSGGGGSGGGGSGGGGSGGGGSGGGGSGGGGSQAVVTQEPSLTVSPGGTVTLTCGSSTGAVTASNYANWVQQKPGQCPRGLIGGHNNRPPGVPARFSGSLLGGKAALTLLGAQPEDEAEYYCALWYSDHWVIGGGTKLTVLG
notes: Previously described GPA33xDOTA IgG-[L]-scFv clone; The light chain entry carries the anti-DOTA scFv at its C-terminus
What is called Kd is a measure of binding affinity in units of concentration. One may read the kon as the rate constant with which the complex forms. In general, koff refers to the first-order rate constant of dissociation. As to B1, in [1], the Kd was determined as 171 pM, the ka2 stood at 0.00328 s⁻¹ and the kd2 was determined as 0.00164 s⁻¹. Besides, the kon in experiment [2] amounted to 4.13e+06 M⁻¹ s⁻¹. In addition, in experiment [3], the koff was determined as 0.00212 s⁻¹. Also, in [4], the “Fold change of KD (relative to BC015, lower is better)” value came to 1.45.

B2: BC178 (bispecific antibody)
heavy: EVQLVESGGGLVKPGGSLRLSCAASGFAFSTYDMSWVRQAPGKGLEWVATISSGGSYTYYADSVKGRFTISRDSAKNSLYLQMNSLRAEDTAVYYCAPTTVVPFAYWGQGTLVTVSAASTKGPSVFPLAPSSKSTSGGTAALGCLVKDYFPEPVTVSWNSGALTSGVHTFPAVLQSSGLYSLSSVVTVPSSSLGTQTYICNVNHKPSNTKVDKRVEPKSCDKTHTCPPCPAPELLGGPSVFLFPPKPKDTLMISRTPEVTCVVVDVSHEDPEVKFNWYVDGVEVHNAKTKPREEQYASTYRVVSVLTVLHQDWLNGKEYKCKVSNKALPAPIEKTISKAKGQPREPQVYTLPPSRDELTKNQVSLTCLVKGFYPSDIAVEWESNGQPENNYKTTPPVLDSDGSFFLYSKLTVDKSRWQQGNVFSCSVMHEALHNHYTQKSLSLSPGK
light: DIQMTQSPSSLSTSVGDRVTITCKASQNVRTVVAWYQQKPGKAPKTLIYLASNRHSGVPSRFSGSGSGTEFTLTISNLQPEDFATYYCLQHWSYPLTFGSGTKLEVKRTVAAPSVFIFPPSDEQLKSGTASVVCLLNNFYPREAKVQWKVDNALQSGNSQESVTEQDSKDSTYSLSSTLTLSKADYEKHKVYACEVTHQGLSSPVTKSFNRGECTSGGGGSGGGGSGGGGSHVQLVESGGGLVQPGGSLRLSCAASGFSLTDYGVHWVRQAPGKGLEWLGVIWSGGGTAYNTALISRFTISRDNSKNTLYLQMNSLRAEDTAVYYCARRGSYPYNYFDAWGCGTLVTVSSGGGGSGGGGSGGGGSGGGGSGGGGSGGGGSQAVVTQEPSLTVSPGGTVTLTCGSSTGAVTASNYANWVQQKPGQCPRGLIGGHNNRPPGVPARFSGSLLGGKAALTLLGAQPEDEAEYYCALWYSDHWVIGGGTKLTVLG
Take B2: in [1], the Kd was found to be 7.92 pM, the ka2 stood at 0.0541 s⁻¹ and the kd2 turned out to be 0.00504 s⁻¹. Further, the kon in [2] is 5.5e+06 M⁻¹ s⁻¹. The dissociation rate constant (koff) in [3] is 0.000511 s⁻¹.

B3: G3A_VK7+VH2 (antibody, V domains shown)
VH: EVQLVESGGGLVKPGGSLRLSCAASGFAFSTYDMSWVRQAPGKGLEWVATISSGGSYTYYLDSVKGRFTISRDSAKNSLYLQMNSLRAEDTAVYYCAPTTVVPFAYWGQGTLVTVSA
VL: DIQMTQSPSSLSASVGDRVTITCKASQNVRTVVAWYQQKPGKAPKRLIYLASNRHTGVPSRFSGSGSGTEFTLTISNVQPEDFATYYCLQHWSYPLTFGSGTKLEVK
For orientation: EC50 means the concentration at which the effect is half-maximal. For B3, the values for the concentration giving a half-maximal response (EC50) in experiment [5] and in experiment [6] were 0.576 µg/mL and 0.795 µg/mL, respectively. Moreover, the Kd in [7] came out at 1750 pM.

B4: G3A_VK8+VH2 (antibody, V domains shown)
VH: EVQLVESGGGLVKPGGSLRLSCAASGFAFSTYDMSWVRQAPGKGLEWVATISSGGSYTYYLDSVKGRFTISRDSAKNSLYLQMNSLRAEDTAVYYCAPTTVVPFAYWGQGTLVTVSA
VL: DIQMTQSPSSLSASVGDRVTITCKASQNVRTVVAWYQQKPGKAPKRLIYLASNRHTGVPSRFSGSGSGTEFTLTISNLQPEDFADYYCLQHWSYPLTFGSGTKLEVK
As to B4, the values for the EC50 in [5] and in [6] were 1.09 µg/mL and 0.993 µg/mL, respectively. For the same molecule, in experiment [7], the Kd turned out to be 1850 pM.

B5: G3A_VK8+VH1 (antibody, V domains shown)
VH: EVQLVESGGGLVKPGGSLRLSCAASGFAFSTYDMSWVRQAPGKGLEWVSTISSGGSYTYYADSVKGRFTISRDNAKNSLYLQMNSLRAEDTAVYYCAPTTVVPFAYWGQGTLVTVSA
VL: DIQMTQSPSSLSASVGDRVTITCKASQNVRTVVAWYQQKPGKAPKRLIYLASNRHTGVPSRFSGSGSGTEFTLTISNLQPEDFADYYCLQHWSYPLTFGSGTKLEVK
For B5, the EC50 in experiment [5] was determined as 0.454 µg/mL; in experiment [6], 0.568 µg/mL. For the same molecule, the Kd in experiment [7] was found to be 975 pM.

B6: G3A_VK8+VH3 (antibody, V domains shown)
VH: EVQLVESGGGLVKPGGSLRLSCAASGFAFSTYDMSWVRQAPGKGLEWVATISSGGSYTYYADSVKGRFTISRDSAKNSLYLQMNSLRAEDTAVYYCAPTTVVPFAYWGQGTLVTVSA
VL: DIQMTQSPSSLSASVGDRVTITCKASQNVRTVVAWYQQKPGKAPKRLIYLASNRHTGVPSRFSGSGSGTEFTLTISNLQPEDFADYYCLQHWSYPLTFGSGTKLEVK
As to B6, the EC50 was found to be 0.433 µg/mL in experiment [5] and 0.792 µg/mL in [6]. In [7], the Kd is 1890 pM.

B7: TC160 (bispecific antibody)
chain: DIQMTQSQSSLSTSVGDRVTITCKASQNVRTVVAWYQQKPGKSPKTLIYLASNRHTGVPSRFSGSGSGTEFTLTISNVQPEDFADYFCLQHWSYPLTFGSGTKLEIKRGGGGSGGGGSGGGGSGGGGSGGGGSGGGGSEVQLVESGGGLVKPGGSLRLSCAASGFAFSTYDMSWVRQAPGKRLEWVATISSGGSYTYYLDSVKGRFTISRDNAKNSLYLQMNSLRAEDTAVYYCAPTTVVPFAYWGQGTLVTVSSGGGGSGGGGSGGGGSGGGGSHVQLVESGGGLVQPGGSLRLSCAASGFSLTDYGVHWVRQAPGKGLEWLGVIWSGGGTAYNTALISRFTISRDNSKNTLYLQMNSLRAEDTAVYYCARRGSYPYNYFDAWGCGTLVTVSSGGGGSGGGGSGGGGSGGGGSGGGGSGGGGSQAVVTQEPSLTVSPGGTVTLTCGSSTGAVTASNYANWVQQKPGQCPRGLIGGHNNRPPGVPARFSGSLLGGKAALTLLGAQPEDEAEYYCALWYSDHWVIGGGTKLTVLGTPLGDTTHTSGKPLDGEYFTLQIRGRERFEMFRELNEALELKDAQAGKEPGGSGGAPHHHHHH
notes: Previously described GPA33xDOTA SADA clone, with the other VH/VL orientation than TC159; Carries the p53 SADA (tetramerization) domain
The IC50 is the concentration that gives 50% inhibition. As for B7, the IC50 amounted to 560 pM in [8] and 360 pM in experiment [9]. Moreover, the midpoint of the response in experiment [10], the EC50, lay at 1200 pM. Also, the “fold change of binding EC50 (relative to TC170, lower is better)” value amounted to 1.81 in experiment [11], 0.22 in [12] and 1.62 in experiment [13]. Also, the Kd in experiment [1] came out at 51.8 pM. Moreover, the ka2 in experiment [1] was 0.00678 s⁻¹. The kd2 in experiment [1] was 0.000654 s⁻¹. Moreover, the kon in experiment [2] turned out to be 3.43e+06 M⁻¹ s⁻¹. Besides, the koff in experiment [3] was 0.00202 s⁻¹. In addition, the “Fold change of KD (relative to TC170, lower is better)” value in experiment [14] was 3.4.
